B1: PKD1 25mer peptide spanning residues 606 to 630 (peptide array spot) (peptide)
peptide: GRDVAIKIIDKLRFPTKQESQLRNE
notes: also called G606-E630; source: SPOT-synthesised peptide on array
B2: His-tagged HSP20 protein (natural protein, UniProt O14558 1-160, looked up)
chain: MEIPVPVQPSWLRRASAPLPGLSAPGRLFDQRFGEGLLEAELAALCPTTLAPYYLRAPSVALPVAQVPTDPGHFSVLLDVKHFSPEEIAVKVVGEHVEVHARHEERPDEHGFVAREFHRRYRLPPGVDPAAVTSALSPEGVLSIQAAPASAQAPPPAAAK
notes: HSP20 (heat shock protein 20), open reading frame from Ultimate ORF clone IOH57317 in pENTR221, moved into pDEST-17 by Gateway cloning; also called His-HSP20; His-Hsp20; source: E. coli, purified (Ni-NTA Superflow resin); not shown: His, N-terminal, kept

How the values were obtained:
His-tagged HSP20 protein = biological target: B2; assay: peptide or protein array; sequence of PKD1 spotted as 25mer peptides each shifted by five amino acids, and alanine scanning array of the 606-630 peptide, overlaid with Hsp20; methods in ref. 31; settings: both partners purified
[1] = biological target: T1, PKD1 on the ProtoArray Human Protein Microarray (human, UniProt Q15139 1-912); assay: peptide or protein array; ProtoArray Human Protein Microarray probed with 10 uM (200 ug/ml) His-HSP20 in 1xPBS, 5 mM MgCl2, 0.5 mM DTT, 0.05% Triton X-100, 5% glycerol, 1% BSA for 1.5 h at 4 C; detected with anti-His and Alexa Fluor 647 secondary antibody; control array in parallel; settings: both partners purified
T1 construct: protein kinase D1 (PKD1) as spotted on the human protein microarray; construct not described; Proteins on this commercial array may carry a carrier tag; also called protein kinase D1; source: spotted on ProtoArray Human Protein Microarray (Invitrogen)
T1 sequence (looked up): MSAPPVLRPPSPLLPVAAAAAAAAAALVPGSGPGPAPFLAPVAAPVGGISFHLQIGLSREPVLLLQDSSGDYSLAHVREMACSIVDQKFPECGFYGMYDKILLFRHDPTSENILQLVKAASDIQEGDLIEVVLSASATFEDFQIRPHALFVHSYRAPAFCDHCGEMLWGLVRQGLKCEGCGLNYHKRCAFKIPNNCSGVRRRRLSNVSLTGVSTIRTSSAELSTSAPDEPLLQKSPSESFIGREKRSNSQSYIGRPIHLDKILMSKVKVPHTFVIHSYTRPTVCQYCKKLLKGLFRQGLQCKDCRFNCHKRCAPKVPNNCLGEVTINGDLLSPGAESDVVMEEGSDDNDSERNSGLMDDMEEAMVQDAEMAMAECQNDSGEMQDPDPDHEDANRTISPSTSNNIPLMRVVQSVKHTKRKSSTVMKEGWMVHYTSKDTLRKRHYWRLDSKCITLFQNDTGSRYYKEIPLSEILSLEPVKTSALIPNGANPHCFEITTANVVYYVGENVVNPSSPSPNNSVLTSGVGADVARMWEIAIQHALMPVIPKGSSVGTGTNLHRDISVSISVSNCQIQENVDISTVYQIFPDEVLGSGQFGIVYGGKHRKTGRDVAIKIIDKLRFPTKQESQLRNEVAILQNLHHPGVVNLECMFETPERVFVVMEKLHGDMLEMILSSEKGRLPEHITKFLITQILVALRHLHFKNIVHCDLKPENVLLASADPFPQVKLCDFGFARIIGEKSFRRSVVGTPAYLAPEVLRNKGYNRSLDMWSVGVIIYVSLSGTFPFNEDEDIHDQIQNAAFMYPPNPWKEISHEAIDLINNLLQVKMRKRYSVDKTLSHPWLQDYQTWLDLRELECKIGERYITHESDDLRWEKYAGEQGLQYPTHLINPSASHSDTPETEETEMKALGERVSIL

Binder	binding result (His-tagged HSP20 protein)	binding result [1]
B1	binds	–
B2	–	binds
